assay: soluble on expression in E. coli; label from the status in PepcDB or PDB records

Sequence | soluble on expression in E. coli
MQLSWKDIPTVAPANDLLDIVLNRTQRKTPTVIRPGFKITRIRAFYMRKVKYTGEGFVEKFEDILKGFPNINDVHPFHRDLMDTLYEKNHYKISLAAISRAKSLVEQVARDYVRLLKFGQSLFQCKQLKRAALGRMATIVKKLRDPLAYLEQVRQHIGRLPSIDPNTRTLLICGYPNVGKSSFLRCITKSDVDVQPYAFTTKSLYVGHFDYKYLRFQAIDTPGILDRPTEEMNNIEMQSIYAIAHLRSCVLYFMDLSEQCGFTIEAQVKLFHSIKPLFANKSVMVVINKTDIIRPEDLDEERAQLLESVKEVPGVEIMTSSCQLEENVMEVRNKACEKLLASRIENKLKSQSRINNVLNKIHVAQPQARDDVKRTPFIPESVKNLKKYDPEDPNRRKLARDIEAENGGAGVFNVNLKDKYLLEDDEWKNDIMPEILDGKNVYDFLDPEIAAKLQALEEEEEKLENEGFYNSDDEEEIYDGFEASEVDDIKEKAAWIRNRQKTMIAEARNRKSLKNKAIMPRSKLTKSFGKMEEHMSTLGHDMSALQDKQNRAARKNRYVERGSDVVFGDQDALTASTENGVKLRQTDRLLDGVADGSMRSKADRMAKMERRERNRHAKQGESDRHNAVSLSKHLFSGKRGVGKTDFR | not soluble
MQLVVARIGRAHGIKGEVTVEVRTDEPELRLGPGAVLATDPASVGPLTIETGRVHSGRLLLRFEGVRDRNGAEALRNTLLIAEVDPDEVPEDPDEYYDHQLMDLDVVTKDGTEVGRITEISHLPSQDLFVVERSDGSEVYIPFVEEIVVEIDLEEQRAVIDPPPGLIDDRAEVDSSDTEAATEADALEHHHHHH | soluble
MQMYLADCIFPDIEGQLAAYKSFCELWDSGEMAKLDNFDGFQMLFRVHAPGAGRVTILFKAESDAQIFEAFAPWRAQFGIEMDFTPVIGCQDVVDYHKKLFAKMS | not soluble
MQNAGSLVVLGSINADHILNLQSFPTPGETVTGNHYQVAFGGKGANQAVAAGRSGANIAFIACTGDDSIGESVRQQLATDNIDITPVSVIKGESTGVALIFVNGEGENVIGIHAGANAALSPALVEAQRERIANASALLMQLESPLESVMAAAKIAHQNKTIVALNPAPARELPDELLALVDIITPNETEAEKLTGIRVENDEDAAKAAQVLHEKGIRTVLITLGSRGVWASVNGEGQRVPGFRVQAVDTIAAGDTFNGALITALLEEKPLPEAIRFAHAAAAIAVTRKGAQPSVPWREEIDAFLDRQR | soluble
MQNISTHKYMEKLDLTWSDDSIRFINTATPRARQTFFYVQEAGDFCTSSPYFTERENLNSFLIIYTLRGKGLLKYHGSQYSLHPGTTAYINCMEHHHYECLQKQNWEFLWLHFNGPSALGYYEEFMRSNFHILDSLDPFFMESTMRRILSITQRKDIHSEILSSCLIINILTRILIENDTENLSLGFMPTY | not soluble
MQNKIVKIGNIDVANDKPFVLFGGMNVLESRDMAMQVCEAYVKVTEKLGVPYVFKASFDKANRSSIHSYRGPGMEEGLKIFQELKDTFGVKIITDVHEIYQCQPVADVVDIIQLPAFLARQTDLVEAMAKTGAVINVKKPQFLSPSQMGNIVEKIEECGNDKIILCDRGTNFGYDNLIVDMLGFSVMKKASKGSPVIFDVTHSLQCRDPFGAASSGRRAQVTELARSGLAVGIAGLFLEAHPNPNQAKCDGPSALPLSALEGFVSQMKAIDDLVKSFPELDTSIGSHHHHHH | soluble
MQNNSYGYAVSVRVGGKEHRHWERYDIDSDFLIPADSFDFVIGRLGPEAAIPDLSGESCEVVIDGQIVMTGIIGSQRHGKSKGSRELSLSGRDLAGFLVDCSAPQLNVKGMTVLDAAKKLAAPWPQIKAVVLKAENNPALGKIDIEPGETVWQALTHIANSVGLHPWLEPDGTLVVGGADYSSPPVATLCWSRTDSRCNIERMDIEWDTDNRFSEVTFLAQSHGRSGDSAKHDLKWVYKDPTMTLHRPKTVVVSDADNLAALQKQAKKQLADWRLEGFTLTITVGGHKTRDGVLWQPGLRVHVIDDEHGIDAVFFLMGRRFMLSRMDGTQTELRLKEDGIWTPDAYPKKAEAARKRKGKRKGVSHKGKKGGKKQAETAVFE | soluble
MQNRQVANATKVAVAGASGYAGGEILRLLLGHPAYADGRLRIGALTAATSAGSTLGEHHPHLTPLAHRVVEPTEAAVLGGHDAVFLALPHGHSAVLAQQLSPETLIIDCGADFRLTDAAVWERFYGSSHAGSWPYGLPELPGARDQLRGTRRIAVPGCYPTAALLALFPALAADLIEPAVTVVAVSGTSGAGRAATTDLLGAEVIGSARAYNIAGVHRHTPEIAQGLRAVTDRDVSVSFTPVLIPASRGILATCTARTRSPLSQLRAAYEKAYHAEPFIYLMPEGQLPRTGAVIGSNAAHIAVAVDEDAQTFVAIAAIDNLVKGTAGAAVQSMNLALGWPETDGLSVVGVAP | soluble
MQNSTTEFLKPRQIDVNTFSATRAKVSMQPFERGFGHTLGNALRRILLSSMNGFAPTEVAIAGVLHEYSTVDGIQEDVVDILLNIKGIVFKLHGRSQVQLVLKKSGSGVVSAGDIELPHDVEILNPGHVICHLADNGQIEMEIKVEQGRGYQSVSGRQVVRDENRQIGAIQLDASFSPISRVSFEVEPARVEQRTDLDKLVLDIETDGSIDPEEAVRSAARILIDQMSIFADLQGTPVEEVEEKAPPIDPVLLRPVDDLELTVRSANCLKAEDIYYIGDLIQRTETELLKTPNLGRKSLNEIKEVLASKGLTLGSKLEAWPPVGLEKP | soluble
MQPAVYILASQRNGTLYIGVTSDLVQRIYQHREHLIEGFTSRYNVTMLVWYELHPTMESAITREKQLKKWNRAWKLQLIEENNVSWQDLWFDII | not soluble
MQPEFWNDKRPAGVPDSLDFAAYRSVVEVFERSCKKFADRPAFSNLGVTLSYAELDRLSAAFAAYLQKQTDLQPGDRIAVQMPNVLQYPIAVFGALRAGLVVVNTNPLYTAREMRHQFKDAGVRALVYLNVFGKLVEEVLPDTRIEYLIEARMGDLLPALKGWLVNSVVKSVKKMVPDYRLPQALPFRQALKQGQGHALQPVRVGLEDVAVLQYTGGTTGVSKGAMLTHGNLVANMLQVHAQLSQLGKDGLPLMKEAQEVMIAPLPLYHIYAFTANCMCMMVSGNHNVLITNPRDIPGFVKELKKWRFSALLGLNTLFVALMEHPGFKDVDFSNLKLTNSGGTALVSATAERWKGVTGCTVVEGYGLTECSPVVTTNPYGEQARLGTVGIPVVGTALKVIDEQGNELPVGERGELCVKGPQVMKGYWQRPEATEEILDAEGWLKTGDIAVIDEDGFVRIVDRKKDLILVSGFNVYPNEIEDVVMAHPKVASCAAVGIPDEKSGEAVKLFVVARDPSLSVEELKAYCKENLTGYKIPRQIVLKDALPMTPVGKILR | not soluble
MQPERYVWAKYFWEQARDANGVARRHLGDTTRNNGAPTVGSPFVALCGIDVTPHPEDTDTARGTCFAPACMVCTTLFARATGWSAGAIGNLIQTFQWTNNDVRQLGLALGMTASQTRRQIEQWTQEADKVNKARHTAKQQKAAGR | not soluble
MQPKVVYGNAAVEGVNRWGWFMGHFITPEDDPRSTEMLEVKWAVHKAGDSRTEWAVNNQAATLSILIDGEFRLQFEDREILLSREGDYVLWCAGVPHWWVAESDCTILTVRWPSKPGDSVALPEESKS | soluble
MQQALLDHLRVVTEEEQRILDGVAEVDKDLYTSGKDFTVDSAKMLSEGKLIAVRTHTRFVHFPSHRHNYIEVLYVCQGQLTNIIGGKEVVIHAGELLFLNQYTRHEILPAGEEDIAINFMILPEFFDVAYTMAGNNNVLADFLVNVLRQDEERGEYLHFKVAEVLQIQNLLENMIYSLVTGKGDQNRINQTTMGLIFLYLLESVQYAEMRLPNQYENMIIMTTLDYIEQQYKTATLTELCEKLHLPMHMLSKMIRKNTGFNFKELLQRKRLNKAVELMCETDLPISDIIAAVGYENGSYFHRVFKERYHTTPRAFRVANGKEERVRL | not soluble
MQQPEQYCRFLCLVAHEFFHLWNIKRIRPQAFEVFDYDSENYTTSLWFVEGVTSYFDQLIPLWAGLFDAPTYLKLLSDSLNRYFHTPGRFVQSLSAASFDAWIKLYRPDENSINSQMSYYLKGELVALEHHHHHH | soluble
MQRGKVKWFNNEKGYGFIEVEGGSDVFVHFTAIQGEGFKTLEEGQEVSFEIVQGNRGPQAANVTKEA | soluble
MQRKLNQSLLLAEAYFKRKFTMPEVNYELRGIKAGVAYLQKNEIKFNRTLLQENTDEFIRQVVPHELAHLIVYQMFGRVKPHGKEWQLVMNEIFKLPADTCHQFDIKNVQGKTFEYRCACQTHFLTIRRHNKIMKENIEYLCKKCRGKLVFVDDEELEHHHHHH | not soluble
MQSKLITELTDLETAFHIRKEVFVKEQGVPLTDEFDTFDEIGEQCKHILVYYHELPVGTGRIRFVDGVGKLERICILKDYRTYGLGKVIIQTLEEIARNEQATKVKLHGQTQAEGFYKKLGYETSSDIFMEDGIPHILMTKMLS | not soluble
MQSLDPLFARLSRSKFRSRFRLGMKERQYCLEKGAPVIEQHAADFVAKRLAPALPANDGKQTPMRGHPVFIAQHATATCCRGCLAKWHNIPQGVSLSEEQQRYIVAVIYHWLVVQMNQP | soluble
MQSLMNNPVTRSNAPCLIVGIGYTTGSVRDLAQRAADYTPPLGDNATADERRQFGQADRFADFIDSELTAFLESRYTLNRNETAVFGHSFGALFGLYSLLSHRCFRRHWLVSPSIWWHNRRILDFMPSENRLDGIDACLNIGALERSSGCKRREERDMAGQAEQMAAELDRRGTAVFFREYPNADHGNVPFYSLTDCVEYLRE | not soluble
MQSRKRLDAELVRRKIARSREQAVEMIKDGRVHVQGFVAKKPATQVTPEASIRVEDAGLDDWASRGAHKLLGALAEFKSKGLNVSGRRALDAGASTGGFTDVLLRESASEVVAVDVGYGQLIWRLQNDARVKVLDRTNIRNLSLEITDGPCDLMVGDLSFISLKLTLPAIAACMSDGADLLPMVKPQFEVGKERLGHGGVVRDPKLRAEVTEDIALFAQQLGLSFVDVVASPLPGPSGNVEYFLWLKKDSGRSAKGLHEIHEKVAEAVQKGPQ | not soluble
MQSYTNRICAVCGDTPAKIHYGVLACFGCKGFFRRAVKDGRNKYVCRFEKNCEVTKFERNACRYCRFRKCLLVGMNPDYVRPDREKSKKGKTVLSKKKSVSRSLSYRLADPSDWTSFLSPSSRKQLSEIGKLAETCSTSTNFDGIGNFSLKSLIADRSLARKTGDSEAMDCSNSPRQLNEQFLGIERIVQCVDYIDRFLVMLEEEHCRKFSVEDKSALISDTMIHLLLFESTSRFVAKGAPGLEDLKLSLAQLPICTTHLTQKIADVFETYLRKPPSIIEYSVLKAYIVLSAESTVLSNSLNESLSLARENLSELLFKVIKHSRNKTSISAANSLSTILHFVYESRNLASRIRQSQQPFFVRDSDPKIPFHKILTDIINPEVSDLLLTTANCRKLSTQMGSSLSSVPPVPPPSDTVPLFHFSPPSLSPCQISAPPPPQQQYTDYSQMPSTSSYPANSSPFQSPYRPNSLSSFPKIPLEMTKSIEEFLRPNGMTTDEMNKPLEKNWADGFRLTPVFNKDIVSQFFPELSNINQHHPF | not soluble
MQTELTGKLQKLGFTENEAKIYIGLLRQGEVTAREIHEFTHVPRTKIYSTLNRMSKKKYIEVIEGTPAYFRSIDPEQLLERLRDEFLFSLNETLEELNSAGYGMKNKCC | not soluble
MQTENKTSPYYRTKLRGLYTTAKADAEAECSILRRALDKIAEIKSLLEERRIAARMAGVYSDNDPPRKTMRRGVLMTLLQQSAMTLPLWIGKPGESPPPLCGAIPASSDYVAKQGDKVAARVKAVDGDEQWILAEVVSYNHSTNKYEVDDIDEEGKERHTLSRRRIIPLPQWEANPETDPEALFSKDQLVLALYPQTTCFYRALIHTPPHRPQDDYSVLFEDTSYADGYSPPLNVAQRYVVACKENKKK | not soluble

Source: the DeepSol protein solubility set
